Source: patent US20210340238A1, “TGFß1 INHIBITORS AND USE THEREOF” (Scholar Rock, Inc., priority 2018, published 2021)

Experiments:
[1] = tested on: Matrix-associated proTGFβ1 vs Cell-associated proTGFβ1; experiment: MSD-SET binding, matrix vs cell bias (G/D); set-up: species or system human; conditions: ratio of cell average KD to ECM average KD
Excerpt: Column (A) of the table provides monoclonal antibodies with discrete amino acid sequences. […] Columns (B), (C), (E) and (F) provide affinities of each of the listed antibodies, measured in KD, towards the antigen complex as indicated, respectively. […] Similarly, Average KD values calculated from (E) and (F) are shown in the corresponding column (G), which collectively represents affinities of the antibodies to cell-surface or cell-associated proTGF complexes. Finally, relative ratios between the average KD values from columns (D) and (G) are expressed as fold bias” in column (H). Thus, the greater the numerical of column (H) is, the greater bias exists for the particular antibody, when comparing binding preferences of the antibody for matrix-associated complexes to cell-surface complexes. This is one way of quantitatively representing and comparing inherent bias of antibodies to their target complexes. Such analyses may be useful in guiding the selection process for a candidate antibody for particular therapeutic use. Select antibodies of the present disclosure, as measured by MSD-SET, show context-bias (i.e., greater than five-fold bias) or unbias (i.e., less than 5-fold bias) toward matrix-associated complexes over cell-associated complexes. […] Without being bound by a particular theory, the differences in the kinetics of the assays and/or differences in the nature of recombinant proteins may account for the noticeable differences seen in Ab19 binding to hGARP complexes observed in the above Octet assay (see Table 6) compared to the below MSD-SET assay (see Table 7 below). For example, the Octet assay measures kinetic on and off rates, while the MSD-SET assay measures binding at equilibrium. In addition, the recombinant antibodies used in the Octet assay were expressed as IgG1 antibodies in yeast, while the antibodies used in the MSD assay were expressed as IgG4 antibodies in mammalian cells.

CloudmanS91 tumors = experiment: CloudmanS91 melanoma mouse model, combination with anti-PD-1; type: in vivo; conditions: 10 mg/kg and 30 mg/kg i.p. weekly, in combination with anti-PD1
Description: Clone M3 [Cloudman S91 melanoma] (ATCC® CCL-53.1™) cells were obtained from the American Type Culture Collection (ATCC), and were maintained at CR Discovery Services as exponentially growing suspension cultures in Kaighn's modified Ham's F12 Medium supplemented with 2.5% fetal bovine serum, 15% horse serum, 2 mM glutamine, 100 units/mL penicillin G sodium, 100 μg/mL streptomycin sulfate and 25 μg/mL gentamicin. The tumor cells were grown in tissue culture flasks in a humidified incubator at 37° C., in an atmosphere of 5% CO2 and 95% air.
An untreated control was used, data not shown.

proTGFβ1 C4S = proTGFβ1 C4S (Homo sapiens, UniProt P01137, C33S); experiment: Octet Red384 pH-sensitivity of binding (dissociation at pH 7 and pH 5); conditions: dissociation at pH 7 vs pH 5
Description: The antibodies were tested against sensor-immobilized human proTGFβ1 C4S, which contains a mutation in the prodomain to facilitate proTGFβ1 expression without disulfide linkage to a presentation molecule.
Then, the tips were moved into an activation solution for 5 minutes. […] The activation solution is prepared immediately before use in the experiment. After tip activation, the tips were loaded for 3 minutes with a 10 ug/mL solution of human proTGFβ1 C4S in 10 mM sodium acetate buffer pH 5. After loading, the tips were quenched in ethanolamine pH 8.5 for 15 minutes. The tips were then baseline/blocked with a 20 minute incubation in 1× enhanced kinetics buffer. 1× enhanced kinetics buffer (1×EKB) is 1× kinetics buffer (ForteBio part no 18-1105 diluted from 10× with PBS) with the addition of 2% BSA (Sigma A3059-100G), 0.5 M NaCl (FisherS671-10), and 0.09% tween-20 (P7949-500M). […] The dissociation was performed in 1×KB at pH 7 and pH 5.

Chain of proTGFβ1 C4S (P01137 30-390 C33S): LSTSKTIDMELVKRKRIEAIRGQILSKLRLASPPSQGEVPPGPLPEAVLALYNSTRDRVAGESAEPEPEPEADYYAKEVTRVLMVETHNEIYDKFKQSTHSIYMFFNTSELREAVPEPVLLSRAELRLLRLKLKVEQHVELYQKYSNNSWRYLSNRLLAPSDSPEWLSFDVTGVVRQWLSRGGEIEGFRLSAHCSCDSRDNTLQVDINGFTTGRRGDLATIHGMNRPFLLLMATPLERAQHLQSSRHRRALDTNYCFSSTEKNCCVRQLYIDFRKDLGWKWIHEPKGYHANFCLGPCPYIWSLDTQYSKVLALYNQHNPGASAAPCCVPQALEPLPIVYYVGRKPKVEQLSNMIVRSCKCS

B1: Ab2: isoform-selective inhibitor of TGFβ1 activation; VH SEQ ID NO: 13, VL SEQ ID NO: 15; human IgG4 (antibody, V domains shown)
VH: EVQLLESGGGLVQPGGSLRLSCAASGFTFADYAMTWVRQAPGKGLEWVSAISGSGAATYFADSVKGRFTISRDNSKNTLYLQMNSLRAEDTAVYYCARVSSGHWDFDYWGQGTLVTVSS
VL: DIQLTQSPSSLSASVGDRVTITCRASQSISSYLNWYQQKPGKAPKLLIYAASNLQSGVPSRFSGSGSGTDFTLTISSLQPEDFATYYCQQTYTVPLTFGGGTKVEIK
modifications: human IgG4 constant regions
(H) G/D (fold bias) [1]: 8.66 fold
Tumor growth (median tumor progression) (CloudmanS91 tumors): delayed tumor growth
pH sensitivity of binding (proTGFβ1 C4S): Ab2 is pH-sensitive
